Blank lines part the entries; values can stand above or below the binder they belong to.
Tests used:
[1] = biological target: T1, biotinylated human Sortilin monomer (human, UniProt Q99523 78-755, limits assumed, biotinylated (Sulfo-NHS-biotin)); test: ForteBio, avidity, biotinylated human Sortilin on sensor
T1 construct: monomer cut from the Fc fusion with IdeS; used unbiotinylated in solution in some formats; also called Bt-hSort; b-H Sort

[2] = biological target: T2, human Sortilin expressed on 293 / HEK293T cells (human, UniProt Q99523 78-830); test: FACS, 293 cells;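 note: antibodies at 10 µg/ml bound to cells for 1 h on ice, detected with PE-labelled anti-human secondary antibody by flow cytometry, reported as mean fluorescence intensity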
T2 construct: full-length recombinant human Sortilin; also called hSort; SORT1
Description: (§1) Cells were harvested, plated at 10⁵/ml in a 96 well plate, washed, and incubated in 100 μl PBS containing 10 μg/ml Mab and 2% FBS for 1 hour in ice. Cells were then washed twice and incubated in 100 μl PBS+2% FBS containing 5 μg/ml PE-conjugated anti-human secondary antibody for 30 minutes in ice. Cells were washed twice in cold PBS and data was acquired on a BD FACS Canto. Data analysis and calculation of MFI values was performed with FlowJo (TreeStar) software version 10.0.7.

[3] = biological target: T3, mouse Sortilin expressed on 293 / HEK293T cells (mouse, UniProt Q6PHU5 74-825); test: FACS, 293 cells;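 note: antibodies at 10 µg/ml bound to cells for 1 h on ice, detected with PE-labelled anti-human secondary antibody by flow cytometry, reported as mean fluorescence intensity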
T3 construct: full-length recombinant mouse Sortilin; also called mSort; msSort
Description: as §1

[4] = biological target: T4, human Sortilin Fc fusion protein (human, UniProt Q99523 78-755); test: ForteBio, avid;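 note: whole IgG captured on AHQ sensors, then contacted with Sortilin Fc fusion antigen at 100 nM, followed by an off-rate phase in buffer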
T4 construct: whole entry named; also called hSort-Fc
Description: (§2) The affinity for the Sortilin antibodies was determined by measuring their KD by ForteBio. […] Briefly, ForteBio affinity measurements were performed by loading IgGs on-line onto AHQ sensors. Sensors were equilibrated off-line in assay buffer for 30 min and then monitored on-line for 60 seconds for baseline establishment. For avid binding measurement, sensors with loaded IgGs were exposed to 100 nM antigen (human or mouse Sortilin Fc fusion) for 3, afterwards they were transferred to assay buffer for 3 min for off-rate measurement.
(§3) The binding affinity of each anti-Sortilin antibody was determined by measuring their KD by ForteBio or MSD-SET at room temperature. […] Briefly, ForteBio affinity measurements were performed by loading IgGs on-line onto AHQ sensors. Sensors were equilibrated off-line in assay buffer for 30 min and then monitored on-line for 60 seconds for baseline establishment. Sensors with loaded IgGs were exposed to 100 nM antigen for 5 minutes, then transferred to assay buffer for 5 min for off-rate measurement. Kinetics were analyzed using the 1:1 binding model.

[5] = biological target: T5, mouse Sortilin Fc fusion protein (mouse; human, UniProt Q6PHU5 74-754); test: ForteBio, avid;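 note: whole IgG captured on AHQ sensors, then contacted with Sortilin Fc fusion antigen at 100 nM, followed by an off-rate phase in buffer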
T5 construct: whole entry named; also called mSort-Fc
Description: as §2, §3

[6] = biological target: T1, biotinylated human Sortilin monomer; test: MSD-SET, Fab; MSD, Fab, monovalent biotinylated human Sortilin
Description: (§4) Antibodies (20 nM in PBS) were coated onto standard bind MSD-ECL plates overnight at 4° C. or at room temperature for 30 min. Plates were then blocked with 1% BSA for 30 min with shaking at 700 rpm, followed by three washes with wash buffer (PB SF+0.05% Tween 20). SET samples were applied and incubated on the plates for 150 s with shaking at 700 rpm followed by one wash. Antigen captured on a plate was detected with 250 ng/ml sulfotag-labeled streptavidin in PBSF by incubation on the plate for 3 min. The plates were washed three times with wash buffer and then read on the MSD Sector Imager 2400 instrument using 1× Read Buffer T with surfactant. The percent free antigen was plotted as a function of titrated antibody in Prism and fit to a quadratic equation to extract the KD. To improve throughput, liquid handling robots were used throughout MSD-SET experiments, including SET sample preparation.

[7] = biological target: T1, biotinylated human Sortilin monomer; test: ForteBio, Fab
Description: The affinity of the anti-Sortilin antibodies was determined by measuring their KD by ForteBio and MSD. […] Briefly, ForteBio affinity measurements were performed by loading immunoglobulins (IgGs) on-line onto AHQ sensors. Sensors were equilibrated off-line in assay buffer for 30 min and then monitored on-line for 60 seconds for baseline establishment. For avid binding measurement, sensors with loaded IgGs were exposed to 100 nM antigen (human or mouse Sortilin Fc fusion) for 3 min, afterwards they were transferred to assay buffer for 3 min for off-rate measurement. […] Monovalent binding measurements were obtained by loading human or mouse Sortilin Fc fusion antigens to AHQ sensor and followed by exposure to −100 nM Sortilin antibody Fab. […] Kinetics data were fit using a 1:1 binding model in the data analysis software provided by ForteBio.

[8] = biological target: T6, biotinylated mouse Sortilin monomer (mouse, UniProt Q6PHU5 74-754, limits assumed, biotinylated); test: MSD-SET, Fab
T6 construct: also called Bt-msSort
Description: as §4

[9] = biological target: T7, recombinant mouse Sortilin (R&D Systems) (mouse, UniProt Q6PHU5 74-754, limits assumed); test: ELISA, biotinylated PGRN on immobilized Sortilin
T7 construct: bought; also called mouse SORT1

[10] = biological target: T3, mouse Sortilin expressed on 293 / …; test: FACS, time course of binding and endocytosis of human PGRN-DyLight650 by HEK293T cells expressing mouse Sortilin
[11] = biological target: T8, recombinant human Sortilin, His-tagged (R&D Systems) (human, UniProt Q99523 78-755); test: ELISA, biotinylated PGRN on immobilized Sortilin
T8 construct: bought; whole entry named; also called His-captured SORT1

[12] = biological target: T8, recombinant human Sortilin, His-tagged …; test: Biacore SPR, His-captured Sortilin

B1: S-14 (antibody, V domains shown)
VH: QVQLVQSGAEVKKPGASVKVSCKASGYTFTSYYMSWVRQAPGQGLEWMGIINPSGGSTSYAQKFQGRVTMTRDTSTSTVYMELSSLRSEDTAVYYCARDPSGIAAAGPASRYYYGMDVWGQGTTVTVSS
VL: DIQMTQSPSSLSASVGDRVTITCRASQSISSYLNWYQQKPGKAPKLLIYGASSLQSGVPSRFSGSGSGTDFTLTISSLQPEDFATYYCQQHYVGPFTFGGGTKVEIK
notes: IgG
Kd [1]: 0.8 nM
MFI [2]: 8010
MFI [3]: 16500
Kd [4]: 5.74 nM
Kd [5]: 2.74 nM

B2: S-2-1 Fab (Fab, V domains shown)
VH: QVQLVQSGAEVKKPGASVKVSCKASGYTFGAYYMHWVRQAPGQGLEWMGWINPNSGFTRYAQKFQGRVTMTRDTSISTAYMELSRLRSDDTAVYYCARGKRSSGWYEGYGMDVWGQGTTVTVSS
VL: DIQMTQSPSSLSASVGDRVTITCRASQSISSYLNWYQQKPGKAPKLLIYAASSLQSGVPSRFSGSGSGTDFTLTISSLQPEDFATYYCQQSDVSPITFGGGTKVEIK
notes: Fab by papain digestion of the IgG
Kd [6]: 0.029 nM
Kd [7]: 0.614 nM
Kd [8]: 0.73 nM

The next lines start with the values.

Kd [9]: 40 nM
B3: recombinant mouse Progranulin (Adipogen) (ligand, UniProt P28798 18-589, looked up)
chain: TQCPDGQFCPVACCLDQGGANYSCCNPLLDTWPRITSHHLDGSCQTHGHCPAGYSCLLTVSGTSSCCPFSKGVSCGDGYHCCPQGFHCSADGKSCFQMSDNPLGAVQCPGSQFECPDSATCCIMVDGSWGCCPMPQASCCEDRVHCCPHGASCDLVHTRCVSPTGTHTLLKKFPAQKTNRAVSLPFSVVCPDAKTQCPDDSTCCELPTGKYGCCPMPNAICCSDHLHCCPQDTVCDLIQSKCLSKNYTTDLLTKLPGYPVKEVKCDMEVSCPEGYTCCRLNTGAWGCCPFAKAVCCEDHIHCCPAGFQCHTEKGTCEMGILQVPWMKKVIAPLRLPDPQILKSDTPCDDFTRCPTNNTCCKLNSGDWGCCPIPEAVCCSDNQHCCPQGFTCLAQGYCQKGDTMVAGLEKIPARQTTPLQIGDIGCDQHTSCPVGQTCCPSLKGSWACCQLPHAVCCEDRQHCCPAGYTCNVKARTCEKDVDFIQPPVLLTLGPKVGNVECGEGHFCHDNQTCCKDSAGVWACCPYLKGVCCRDGRHCCPGGFHCSARGTKCLRKKIPRWDMFLRDPVPRPLL
modifications: biotinylated
notes: also called mPGRN; Bio-mPGRN

binding result [10]: binds
Kd [11]: 14 nM
Kd [12]: 14.3 nM
B4: recombinant human Progranulin (Adipogen) (ligand, UniProt P28799 18-593, looked up)
chain: TRCPDGQFCPVACCLDPGGASYSCCRPLLDKWPTTLSRHLGGPCQVDAHCSAGHSCIFTVSGTSSCCPFPEAVACGDGHHCCPRGFHCSADGRSCFQRSGNNSVGAIQCPDSQFECPDFSTCCVMVDGSWGCCPMPQASCCEDRVHCCPHGAFCDLVHTRCITPTGTHPLAKKLPAQRTNRAVALSSSVMCPDARSRCPDGSTCCELPSGKYGCCPMPNATCCSDHLHCCPQDTVCDLIQSKCLSKENATTDLLTKLPAHTVGDVKCDMEVSCPDGYTCCRLQSGAWGCCPFTQAVCCEDHIHCCPAGFTCDTQKGTCEQGPHQVPWMEKAPAHLSLPDPQALKRDVPCDNVSSCPSSDTCCQLTSGEWGCCPIPEAVCCSDHQHCCPQGYTCVAEGQCQRGSEIVAGLEKMPARRASLSHPRDIGCDQHTSCPVGQTCCPSLGGSWACCQLPHAVCCEDRQHCCPAGYTCNVKARSCEKEVVSAQPATFLARSPHVGVKDVECGEGHFCHDNQTCCRDNRQGWACCPYRQGVCCADRRHCCPAGFRCAARGTKCLRREAPRWDAPLRDPALRQLL
modifications: biotinylated or DyLight650-labelled in some assays
notes: also called hPGRN; PGRN

Source: patent publication US20220185898A1 (Alector, published 2022)
